Measurements from patent US20100209939A1.

Experiments:
[1] = target: human proBNP(1-108), recombinant protein produced in E. coli (HyTest), non-glycosylated (human) (UniProt P16860); assay: sandwich ELISA, hinge 76 capture, HRP-mAb; proBNP(1-108) 39 pg/ml
[2] = target: human proBNP(1-108), recombinant protein produced in E. coli (HyTest), non-glycosylated (human) (UniProt P16860); assay: sandwich ELISA, hinge 76 capture, HRP-mAb; proBNP(1-108) 156.25 pg/ml
[3] = target: human proBNP(1-108), recombinant protein produced in E. coli (HyTest), non-glycosylated (human) (UniProt P16860); assay: sandwich ELISA, hinge 76 capture, HRP-mAb; proBNP(1-108) 1,250 pg/ml
[4] = target: human BNP(1-32), synthetic peptide (Sigma-Aldrich #B-5900) (human); assay: sandwich ELISA, L21016 capture; BNP(1-32) 2,500 pg/ml
human BNP(1-32), synthetic peptide (Sigma-Aldrich #B-5900) (human), sequence (peptide, as listed by the source): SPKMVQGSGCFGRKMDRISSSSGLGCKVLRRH

[5] = target: human proBNP(1-108), recombinant protein produced in E. coli (HyTest), non-glycosylated (human) (UniProt P16860); assay: sandwich ELISA, hinge 76 capture, HRP-mAb; proBNP(1-108) 312.5 pg/ml
[6] = target: human proBNP(1-108), recombinant protein produced in E. coli (HyTest), non-glycosylated (human) (UniProt P16860); assay: sandwich ELISA, hinge 76 capture, HRP-mAb; proBNP(1-108) 10,000 pg/ml
[7] = target: human BNP(1-32), synthetic peptide (Sigma-Aldrich #B-5900) (human); assay: sandwich ELISA, L21016 capture; BNP(1-32) 10,000 pg/ml
[8] = target: human proBNP(1-108), recombinant protein produced in E. coli (HyTest), non-glycosylated (human) (UniProt P16860); assay: sandwich ELISA, hinge 76 capture, HRP-mAb; proBNP(1-108) 2,500 pg/ml
[9] = target: human BNP(1-32), synthetic peptide (Sigma-Aldrich #B-5900) (human); assay: sandwich ELISA, L21016 capture; BNP(1-32) 156.25 pg/ml
[10] = target: human BNP(1-32), synthetic peptide (Sigma-Aldrich #B-5900) (human); assay: sandwich ELISA, L21016 capture; BNP(1-32) 1,250 pg/ml
[11] = target: human BNP(1-32), synthetic peptide (Sigma-Aldrich #B-5900) (human); assay: sandwich ELISA, L21016 capture; BNP(1-32) 39 pg/ml
[12] = target: human proBNP(1-108), recombinant protein produced in E. coli (HyTest), non-glycosylated (human) (UniProt P16860); assay: sandwich ELISA, hinge 76 capture, HRP-mAb; proBNP(1-108) 0 pg/ml (blank)
[13] = target: human BNP(1-32), synthetic peptide (Sigma-Aldrich #B-5900) (human); assay: sandwich ELISA, L21016 capture; BNP(1-32) 0 pg/ml (blank)
[14] = target: human BNP(1-32), synthetic peptide (Sigma-Aldrich #B-5900) (human); assay: sandwich ELISA, L21016 capture; BNP(1-32) 78 pg/ml
[15] = target: human proBNP(1-108), recombinant protein produced in E. coli (HyTest), non-glycosylated (human) (UniProt P16860); assay: sandwich ELISA, hinge 76 capture, HRP-mAb; proBNP(1-108) 78 pg/ml
[16] = target: human proBNP(1-108), recombinant protein produced in E. coli (HyTest), non-glycosylated (human) (UniProt P16860); assay: sandwich ELISA, hinge 76 capture, HRP-mAb; proBNP(1-108) 625 pg/ml
[17] = target: human BNP(1-32), synthetic peptide (Sigma-Aldrich #B-5900) (human); assay: sandwich ELISA, L21016 capture; BNP(1-32) 625 pg/ml
[18] = target: human proBNP(1-108), recombinant protein produced in E. coli (HyTest), non-glycosylated (human) (UniProt P16860); assay: sandwich ELISA, hinge 76 capture, HRP-mAb; proBNP(1-108) 20 pg/ml
[19] = target: human proBNP(1-108), recombinant protein produced in E. coli (HyTest), non-glycosylated (human) (UniProt P16860); assay: sandwich ELISA, hinge 76 capture, HRP-mAb; proBNP(1-108) 5,000 pg/ml
[20] = target: human BNP(1-32), synthetic peptide (Sigma-Aldrich #B-5900) (human); assay: sandwich ELISA, L21016 capture; BNP(1-32) 20 pg/ml
[21] = target: human BNP(1-32), synthetic peptide (Sigma-Aldrich #B-5900) (human); assay: sandwich ELISA, L21016 capture; BNP(1-32) 5,000 pg/ml
[22] = target: human BNP(1-32), synthetic peptide (Sigma-Aldrich #B-5900) (human); assay: sandwich ELISA, L21016 capture; BNP(1-32) 312.5 pg/ml
[23] = target: human BNP(1-32), synthetic peptide (Sigma-Aldrich #B-5900) (human); assay: sandwich ELISA, L21016 capture, BNP(1-32) 5 ng/ml; 50B7 0.5 µg/ml alone, no 20G7
[24] = target: human proBNP(1-108), recombinant protein produced in E. coli (HyTest), non-glycosylated (human) (UniProt P16860); assay: SPR ProteOn XPR36, mAb captured by anti-Fc, soluble antigen 13-200 nM
[25] = target: glycosylated human proBNP(1-108), recombinant protein from HEK293 cells (HyTest) (human) (UniProt P16860); assay: as above
glycosylated human proBNP(1-108), recombinant protein from HEK293 cells (HyTest) (human), sequence (P16860 27-134): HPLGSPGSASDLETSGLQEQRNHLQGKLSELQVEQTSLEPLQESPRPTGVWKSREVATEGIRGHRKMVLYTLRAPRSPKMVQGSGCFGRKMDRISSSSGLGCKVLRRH

[26] = target: 24C5 monoclonal antibody (HyTest); assay: competition ELISA: BNP(1-32) immobilised at 0.5 µg/ml, 24C5 at 0.5 µg/ml mixed with the soluble peptide, anti-mouse IgG-peroxidase; % inhibition of the binding of 24C5 to BNP(1-32)

human proBNP(1-108), recombinant protein produced in E. coli (HyTest), non-glycosylated (human), sequence (P16860 27-134): as above

| OD [1] [OD] | OD [2] [OD] | OD [3] [OD] | OD 490 nm [4] [OD] | OD [5] [OD] | OD [6] [OD] | OD 490 nm [7] [OD] | OD [8] [OD] | OD 490 nm [9] [OD] | OD 490 nm [10] [OD] | OD 490 nm [11] [OD] | OD [12] [OD] | OD 490 nm [13] [OD] | OD 490 nm [14] [OD] | OD [15] [OD] | OD [16] [OD] | OD 490 nm [17] [OD] | OD [18] [OD] | OD [19] [OD] | OD 490 nm [20] [OD] | Molecule | further results |
| --- | --- | --- | --- | --- | --- | --- | --- | --- | --- | --- | --- | --- | --- | --- | --- | --- | --- | --- | --- | --- | --- |
| 0.028 | 0.027 | 0.024 | 0.035 | 0.028 | 0.158 | 0.048 | 0.031 | 0.032 | 0.031 | 0.032 | 0.024 | 0.022 | 0.055 | 0.033 | 0.024 | 0.029 | 0.028 | 0.041 | 0.034 | 26E2 monoclonal antibody (HyTest) | OD 490 nm [21]: 0.041 OD; OD 490 nm [22]: 0.027 OD |
| 0.056 | 0.055 | 0.068 | 0.067 | 0.035 | 0.22 | 0.077 | 0.069 | 0.071 | 0.056 | 0.055 | 0.044 | 0.071 | 0.052 | 0.056 | 0.07 | 0.059 | 0.052 | 0.117 | 0.068 | 24C5 monoclonal antibody (HyTest) | OD 490 nm [21]: 0.068 OD; OD 490 nm [22]: 0.063 OD |
| – | – | – | – | – | – | – | – | – | – | – | – | – | – | – | – | – | – | – | – | 50B7 monoclonal antibody (HyTest) | OD 490 nm [23]: 1.3 OD |
| – | – | – | – | – | – | – | – | – | – | – | – | – | – | – | – | – | – | – | – | hinge 76 monoclonal antibody (Bio-Rad) | Kd [24]: 0.173 nM; koff [24]: 0.000194 s⁻¹; kon [24]: 1.12e+06 M⁻¹ s⁻¹; Kd [25]: 23.5 nM; koff [25]: 0.00272 s⁻¹; kon [25]: 117000 M⁻¹ s⁻¹ |
| – | – | – | – | – | – | – | – | – | – | – | – | – | – | – | – | – | – | – | – | AGRKMDR [mutated epitope peptide A11GRKMDR17 (SEQ ID NO: 62)] | IC50 (read off the curve) [26]: 2 µg/mL |
